T1: Ig/EBP-1 (C/EBP gamma) (mouse, UniProt P53568 1-150)
T1 sequence: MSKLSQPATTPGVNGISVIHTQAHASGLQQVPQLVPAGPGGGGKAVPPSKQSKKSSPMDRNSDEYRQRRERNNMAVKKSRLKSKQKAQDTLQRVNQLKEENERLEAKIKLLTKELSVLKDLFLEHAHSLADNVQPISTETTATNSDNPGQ


Target: T1, Ig/EBP-1 (C/EBP gamma)
Experiment: EMSA

Row | Binder | binding result
1 | A mt13 (dsDNA) DNA 1: GATCCTGCCCCTCGAGGTTCCCAAGAACAGA DNA 2: GATCTCTGTTCTTGGGAACCTCGAGGGGCAG | no binding
2 | oligo A wt (dsDNA) DNA 1: GATCCTGCCTTAGTCAACTTCCCAAGAACAGA DNA 2: GATCTCTGTTCTTGGGAAGTTGACTAAGGCAG | binds
